Experimental findings from patent publication US20070122429A1 (published 2007) are described below.

In experiment [1] the target is HIV-1 HXB2 Env (gp41 N-trimer region) (HIV-1 HXB2, UniProt P04578 33-856). Nature of the experiment: cell-based or functional assay.
Experiment [2] deals with HIV-1 JRFL Env (gp41 N-trimer region) (HIV-1 JRFL). Nature of the experiment: cell-based or functional assay.
The target of experiment [3] is T1, IZN36 (biotinylated Cys-Gly-Gly-Asp-IZN36, His tag removed).
T1 construct: also called biotinylated IZN36
Briefly: SPR, immobilised IZN36; compared with MBP-C37. A general note: SPR reads the build-up and loss of mass on a sensor chip optically.

On to SSSSSGGHTTWMEWDREINNYTSLIHSLIEESQNQQEKNEQELLHHHHHH (other) [MBP-C37], for which, in experiment [1], the “IC50, cell-cell fusion (HXB2 Env)” value was found to be 192 nM; the “IC50, viral infectivity HXB2” value is 206 nM; the “IC50 ratio (cell-cell fusion), relative to C37” value was 225; the “IC50 ratio HXB2 (viral infectivity), relative to C37” value stood at 74.8. In addition, in experiment [2], the “IC50, viral infectivity JRFL” value was 1870 nM and the “IC50 ratio JRFL (viral infectivity), relative to C37” value worked out at 228.

B1: MBP2-C37 (other)
chain: SSSGGGSGGGSGGGSSGGGSGGGSGGGSSSSGGHTTWMEWDREINNYTSLIHSLIEESQNQQEKNEQELLHHHHHH
notes: domain: C-peptide (C37)
With B1, the “KD difference from MBP-C37” value in experiment [3] is less than 20%. The “IC50, viral infectivity HXB2” value in experiment [1] came to 79.2 nM. In addition, the “IC50, viral infectivity JRFL” value in experiment [2] is 516 nM.

B2: MBP1-C37 (other)
chain: SSSGGGSGGGSGGGSSSSGGHTTWMEWDREINNYTSLIHSLIEESQNQQEKNEQELLHHHHHH
notes: domain: C-peptide (C37)
B2: the “KD difference from MBP-C37” value in experiment [3] is less than 20%. Besides, the “IC50, viral infectivity HXB2” value in experiment [1] stood at 88.9 nM. For the same molecule, in experiment [2], the “IC50, viral infectivity JRFL” value was 640 nM.
